Where no end group is shown, it is not given here.
T1: epitope peptide Cys-CE3C long (also: biotin label, site not given here)
T1 peptide: CSVNVDKQPKYEYSL


Target: T1, epitope peptide Cys-CE3C long
Experiment: competitive ELISA, unlabeled vs biotin-labeled peptide, antibody on anti-human IgG plate
Procedure: A diluted solution of the obtained recombinant humanized antibody, a biotin-labeled immunogen peptide, and Streptavidin-HRP (manufactured by PIERCE) were added to an anti-human IgG antibody-immobilized plate, and reacted overnight at 4° C. […] Next, a recombinant human antibody at the dilution rate, a biotin-labeled immunogen peptide, and Streptavidin-HRP (manufactured by PIERCE) were added. At the same time, a dilution series of unlabeled immunogenic peptide was added and reacted overnight at 4° C. After washing twice with ELISA wash buffer, TMB-Substrate Chromogen (manufactured by Thermo Fisher Scientific) was added to develop color, the reaction was stopped with an equal amount of 0.5N sulfuric acid, and the absorbance at 450 nm was measured. The concentration of the unlabeled peptide which attenuated the signal of the biotin-labeled peptide by half was defined as the affinity (IC50).

| Binder | IC50 [nM] |
| --- | --- |
| humanized antibody h15H11 (IGHV7-4-1 Q43R, G44S, R94P / IGKV7-3 Y36F, V78M) (antibody, human IgG4 S228P, kappa, V domains shown, hIgG4Pro/hIgK; also called h15H11-WT; h15H11-wt) VH: QVQLVQSGSELKKPGASVKVSCKASGYTFTDYNMHWVRQAPGRSLEWMGRINPKNGVINSNEKFKDRFVFSLDTSVSTAYLQISSLKAEDTAVYYCAPSYYGGNTDAYWGQGTLVTVSS VL: DIVLTQSPASLAVSPGQRATITCRASESVDNYGISFMNWFQQKPGQPPKLLIYAASSQGSGVPARFSGSGSGTDFTLTINPMEANDTANYYCQQSKEFPWTFGGGTKVEIKR | 1.44 |
| h15H11-8 (antibody, human IgG4 S228P, kappa, V domains shown, hIgG4Pro/hIgK) VH: QVQLVQSGSELKKPGASVKVSCKASGYTFTDYNMHWVRQAPGRSLEWMGRINPKNGVILSNEKFKDRFVFSLDTSVSTAYLQISSLKAEDTAVYYCAPSYYGGNDDAYWGQGTLVTVSS VL: DIVLTQSPASLAVSPGQRATITCRASESVDNYGISFMNWFQQKPGQPPKLLIYAASSQGSGVPARFSGSGSGTDFTLTINPMEANDTANYYCQQSKEFPWTFGGGTKVEIKR | 0.6 |
| h15H11-9 (antibody, human IgG4 S228P, kappa, V domains shown, hIgG4Pro/hIgK) VH: QVQLVQSGSELKKPGASVKVSCKASGYTFTDYNMHWVRQAPGRSLEWMGRINPKNGVILSNEKFKDRFVFSLDTSVSTAYLQISSLKAEDTAVYYCAPSYYGGNDDAYWGQGTLVTVSS VL: DIVLTQSPASLAVSPGQRATITCRASDSVDNYGISFLNWFQQKPGQPPKLLIYAASSQGSGVPARFSGSGSGTDFTLTINPMEANDTANYYCQQSKEFPWTFGGGTKVEIKR | 0.61 |
| h15H11-13 (antibody, human IgG4 S228P, kappa, V domains shown, hIgG4Pro/hIgK) VH: QVQLVQSGSELKKPGASVKVSCKASGYTFTEYNMHWVRQAPGRSLEWMGRINPKNGVINSNEKFKDRFVFSLDTSVSTAYLQISSLKAEDTAVYYCAPSYYGGNDDAYWGQGTLVTVSS VL: DIVLTQSPASLAVSPGQRATITCRASDSVDNYGISFLNWFQQKPGQPPKLLIYAASSQGSGVPARFSGSGSGTDFTLTINPMEANDTANYYCQQSKEFPWTFGGGTKVEIKR | 0.64 |
| h15H11-20 (antibody, human IgG4 S228P, kappa, V domains shown, hIgG4Pro/hIgK) VH: QVQLVQSGSELKKPGASVKVSCKASGYTFTDYNMHWVRQAPGRSLEWMGRINPKNGVINSNEKFKDRFVFSLDTSVSTAYLQISSLKAEDTAVYYCAPSYYGGNDDAYWGQGTLVTVSS VL: DIVLTQSPASLAVSPGQRATITCRASESVDNYGISFMNWFQQKPGQPPKLLIYAASSQGSGVPARFSGSGSGTDFTLTINPMEANDTANYYCQQSKEFPWTFGGGTKVEIKR | 0.77 |
| h15H11-5 (antibody, human IgG4 S228P, kappa, V domains shown, hIgG4Pro/hIgK) VH: QVQLVQSGSELKKPGASVKVSCKASGYTFTEYNMHWVRQAPGRSLEWMGRINPKNGVILSNEKFKDRFVFSLDTSVSTAYLQISSLKAEDTAVYYCAPSYYGGDTDAYWGQGTLVTVSS VL: DIVLTQSPASLAVSPGQRATITCRASDSVDNYGISFLNWFQQKPGQPPKLLIYAASSQGSGVPARFSGSGSGTDFTLTINPMEANDTANYYCQQSKEFPWTFGGGTKVEIKR | 0.52 |
| h15H11-6 (antibody, human IgG4 S228P, kappa, V domains shown, hIgG4Pro/hIgK) VH: QVQLVQSGSELKKPGASVKVSCKASGYTFTDYNMHWVRQAPGRSLEWMGRINPKNGVINSNEKFKDRFVFSLDTSVSTAYLQISSLKAEDTAVYYCAPSYYGGDDDAYWGQGTLVTVSS VL: DIVLTQSPASLAVSPGQRATITCRASDSVDNYGISFLNWFQQKPGQPPKLLIYAASSQGSGVPARFSGSGSGTDFTLTINPMEANDTANYYCQQSKEFPWTFGGGTKVEIKR | 0.57 |
| h15H11-12 (antibody, human IgG4 S228P, kappa, V domains shown, hIgG4Pro/hIgK) VH: QVQLVQSGSELKKPGASVKVSCKASGYTFTEYNMHWVRQAPGRSLEWMGRINPKNGVILSNEKFKDRFVFSLDTSVSTAYLQISSLKAEDTAVYYCAPSYYGGDTDAYWGQGTLVTVSS VL: DIVLTQSPASLAVSPGQRATITCRASESVDNYGISFMNWFQQKPGQPPKLLIYAASSQGSGVPARFSGSGSGTDFTLTINPMEANDTANYYCQQSKEFPWTFGGGTKVEIKR | 0.62 |
| h15H11-19 (antibody, human IgG4 S228P, kappa, V domains shown, hIgG4Pro/hIgK) VH: QVQLVQSGSELKKPGASVKVSCKASGYTFTEYNMHWVRQAPGRSLEWMGRINPKNGVINSNEKFKDRFVFSLDTSVSTAYLQISSLKAEDTAVYYCAPSYYGGDTDAYWGQGTLVTVSS VL: DIVLTQSPASLAVSPGQRATITCRASDSVDNYGISFLNWFQQKPGQPPKLLIYAASSQGSGVPARFSGSGSGTDFTLTINPMEANDTANYYCQQSKEFPWTFGGGTKVEIKR | 0.74 |
| h15H11-4 (antibody, human IgG4 S228P, kappa, V domains shown, hIgG4Pro/hIgK) VH: QVQLVQSGSELKKPGASVKVSCKASGYTFTDYNMHWVRQAPGRSLEWMGRINPKNGVILSNEKFKDRFVFSLDTSVSTAYLQISSLKAEDTAVYYCAPSYYGGDDDAYWGQGTLVTVSS VL: DIVLTQSPASLAVSPGQRATITCRASESVDNYGISFMNWFQQKPGQPPKLLIYAASSQGSGVPARFSGSGSGTDFTLTINPMEANDTANYYCQQSKEFPWTFGGGTKVEIKR | 0.51 |
| h15H11-1 (antibody, human IgG4 S228P, kappa, V domains shown, hIgG4Pro/hIgK) VH: QVQLVQSGSELKKPGASVKVSCKASGYTFTEYNMHWVRQAPGRSLEWMGRINPKNGVILSNEKFKDRFVFSLDTSVSTAYLQISSLKAEDTAVYYCAPSYYGGDDDAYWGQGTLVTVSS VL: DIVLTQSPASLAVSPGQRATITCRASDSVDNYGISFLNWFQQKPGQPPKLLIYAASSQGSGVPARFSGSGSGTDFTLTINPMEANDTANYYCQQSKEFPWTFGGGTKVEIKR | 0.47 |
| h15H11-3 (antibody, human IgG4 S228P, kappa, V domains shown, hIgG4Pro/hIgK) VH: QVQLVQSGSELKKPGASVKVSCKASGYTFTEYNMHWVRQAPGRSLEWMGRINPKNGVILSNEKFKDRFVFSLDTSVSTAYLQISSLKAEDTAVYYCAPSYYGGDDDAYWGQGTLVTVSS VL: DIVLTQSPASLAVSPGQRATITCRASESVDNYGISFMNWFQQKPGQPPKLLIYAASSQGSGVPARFSGSGSGTDFTLTINPMEANDTANYYCQQSKEFPWTFGGGTKVEIKR | 0.5 |
| h15H11-2 (antibody, human IgG4 S228P, kappa, V domains shown, hIgG4Pro/hIgK) VH: QVQLVQSGSELKKPGASVKVSCKASGYTFTDYNMHWVRQAPGRSLEWMGRINPKNGVILSNEKFKDRFVFSLDTSVSTAYLQISSLKAEDTAVYYCAPSYYGGDDDAYWGQGTLVTVSS VL: DIVLTQSPASLAVSPGQRATITCRASDSVDNYGISFLNWFQQKPGQPPKLLIYAASSQGSGVPARFSGSGSGTDFTLTINPMEANDTANYYCQQSKEFPWTFGGGTKVEIKR | 0.48 |
| h15H11-18 (antibody, human IgG4 S228P, kappa, V domains shown, hIgG4Pro/hIgK) VH: QVQLVQSGSELKKPGASVKVSCKASGYTFTDYNMHWVRQAPGRSLEWMGRINPKNGVINSNEKFKDRFVFSLDTSVSTAYLQISSLKAEDTAVYYCAPSYYGGNDDAYWGQGTLVTVSS VL: DIVLTQSPASLAVSPGQRATITCRVSDSVDNYGISFLNWFQQKPGQPPKLLIYAASSQGSGVPARFSGSGSGTDFTLTINPMEANDTANYYCQQSKEFPWTFGGGTKVEIKR | 0.74 |

The remaining binders from weak to strong by IC50, led by results:

| IC50 [nM] | Binder |
| --- | --- |
| 0.7 | h15H11-17 (antibody, human IgG4 S228P, kappa, V domains shown, hIgG4Pro/hIgK) VH: QVQLVQSGSELKKPGASVKVSCKASGYTFTDYNMHWVRQAPGRSLEWMGRINPKNGVINSNEKFKDRFVFSLDTSVSTAYLQISSLKAEDTAVYYCAPSYYGGNDDAYWGQGTLVTVSS VL: DIVLTQSPASLAVSPGQRATITCRASDSVDNYGISFLNWFQQKPGQPPKLLIYAASSQGSGVPARFSGSGSGTDFTLTINPMEANDTANYYCQQSKEFPWTFGGGTKVEIKR |
| 0.68 | h15H11-16 (antibody, human IgG4 S228P, kappa, V domains shown, hIgG4Pro/hIgK) VH: QVQLVQSGSELKKPGASVKVSCKASGYTFTEYNMHWVRQAPGRSLEWMGRINPKNGVINSNEKFKDRFVFSLDTSVSTAYLQISSLKAEDTAVYYCAPSYYGGNDDAYWGQGTLVTVSS VL: DIVLTQSPASLAVSPGQRATITCRASESVDNYGISFMNWFQQKPGQPPKLLIYAASSQGSGVPARFSGSGSGTDFTLTINPMEANDTANYYCQQSKEFPWTFGGGTKVEIKR |
| 0.66 | h15H11-14 (antibody, human IgG4 S228P, kappa, V domains shown, hIgG4Pro/hIgK) VH: QVQLVQSGSELKKPGASVKVSCKASGYTFTDYNMHWVRQAPGRSLEWMGRINPKNGVINSNEKFKDRFVFSLDTSVSTAYLQISSLKAEDTAVYYCAPSYYGGDDDAYWGQGTLVTVSS VL: DIVLTQSPASLAVSPGQRATITCRASESVDNYGISFMNWFQQKPGQPPKLLIYAASSQGSGVPARFSGSGSGTDFTLTINPMEANDTANYYCQQSKEFPWTFGGGTKVEIKR |
| 0.66 | h15H11-15 (antibody, human IgG4 S228P, kappa, V domains shown, hIgG4Pro/hIgK) VH: QVQLVQSGSELKKPGASVKVSCKASGYTFTDYNMHWVRQAPGRSLEWMGRINPKNGVILSNEKFKDRFVFSLDTSVSTAYLQISSLKAEDTAVYYCAPSYYGGDTDAYWGQGTLVTVSS VL: DIVLTQSPASLAVSPGQRATITCRASESVDNYGISFMNWFQQKPGQPPKLLIYAASSQGSGVPARFSGSGSGTDFTLTINPMEANDTANYYCQQSKEFPWTFGGGTKVEIKR |
| 0.62 | h15H11-11 (antibody, human IgG4 S228P, kappa, V domains shown, hIgG4Pro/hIgK) VH: QVQLVQSGSELKKPGASVKVSCKASGYTFTDYNMHWVRQAPGRSLEWMGRINPKNGVILSNEKFKDRFVFSLDTSVSTAYLQISSLKAEDTAVYYCAPSYYGGDTDAYWGQGTLVTVSS VL: DIVLTQSPASLAVSPGQRATITCRASDSVDNYGISFLNWFQQKPGQPPKLLIYAASSQGSGVPARFSGSGSGTDFTLTINPMEANDTANYYCQQSKEFPWTFGGGTKVEIKR |
| 0.61 | h15H11-10 (antibody, human IgG4 S228P, kappa, V domains shown, hIgG4Pro/hIgK) VH: QVQLVQSGSELKKPGASVKVSCKASGYTFTEYNMHWVRQAPGRSLEWMGRINPKNGVILSNEKFKDRFVFSLDTSVSTAYLQISSLKAEDTAVYYCAPSYYGGNDDAYWGQGTLVTVSS VL: DIVLTQSPASLAVSPGQRATITCRASESVDNYGISFMNWFQQKPGQPPKLLIYAASSQGSGVPARFSGSGSGTDFTLTINPMEANDTANYYCQQSKEFPWTFGGGTKVEIKR |
| 0.58 | h15H11-7 (antibody, human IgG4 S228P, kappa, V domains shown, hIgG4Pro/hIgK) VH: QVQLVQSGSELKKPGASVKVSCKASGYTFTEYNMHWVRQAPGRSLEWMGRINPKNGVILSNEKFKDRFVFSLDTSVSTAYLQISSLKAEDTAVYYCAPSYYGGNDDAYWGQGTLVTVSS VL: DIVLTQSPASLAVSPGQRATITCRASDSVDNYGISFLNWFQQKPGQPPKLLIYAASSQGSGVPARFSGSGSGTDFTLTINPMEANDTANYYCQQSKEFPWTFGGGTKVEIKR |
